167 variants from the RNAGym collection of RNA variant scans (doi:10.7554/elife.80360) can be followed below.

B1: Hairpin Ribozyme (parent)
chain: GUCCUCUUUCACGUGCGCGUGAAAGAGAGAAGUGAACCAGAGAAACACACGUUGUGGUAUAUUACCUGGUA

This data set covers variants of B1. The experiment in a line: self-cleavage, relative activity (ratio to wild type); higher = more cleavage; co-transcriptional.
Take C6U A71C: the self-cleavage amounted to 1.05. As for C46A U67A, the self-cleavage was determined as 0.122.

As to C50U U55C, the self-cleavage amounted to 0.615. The same measure for U2A A31U: 0.163; for A61C G69A: 0.159; for A44U U62A: 0.26.

Consider U9A G34A, for which the self-cleavage came to 0.905. Take G25U A28U: the self-cleavage was 0.509. The same measure for G17U U58A: 0.593; for G34A C46G: 0.159; for C6U U62G: 0.102. The same measure for A39C A49C: 0.151. The same measure for C3U A61G: 0.117. Take A22U A43G: the self-cleavage was found to be 0.237. G56A U70C: the self-cleavage worked out at 0.247.

Regarding A35U U63G, the self-cleavage was determined as 0.147. Take G27C G40C: the self-cleavage is 0.107. For the variant G27C G40A, the self-cleavage came to 0.0679.

For U33C U62C, the self-cleavage amounted to 0.0427. In the case of U33A C66G, the self-cleavage was 0.101. Take A36U A41C: the self-cleavage was 0.654. Next, U55A G57A: 0.148. For G32A C46A, the self-cleavage amounted to 0.145.

Turning to A22G U67C, the self-cleavage came to 0.231. Next, G21U A22G: 0.736; C4G U33A: 0.154. For the variant A26U A43U, the self-cleavage was determined as 0.139. With C3G G21C, the self-cleavage was 0.154. With C6U C48A, the self-cleavage was 0.209. The same measure for U9C U20C: 0.885; for U5G U52A: 0.444. Regarding C18A C37A, the self-cleavage came out at 0.315. As to G57C U62G, the self-cleavage amounted to 0.155. Regarding G1A A26G, the self-cleavage came out at 0.149.

For the variant U33C G42C, the self-cleavage was 0.0894.

On to G21U A41U, for which the self-cleavage is 1.24. In the case of U5C C38G, the self-cleavage was found to be 0.115. A30U C38A: the self-cleavage was found to be 0.0692.

On to A44C U52G, for which the self-cleavage amounted to 0.203. On to U8A A45C, for which the self-cleavage is 0.158. Next, A61G A71G: 0.168; U8G U55A: 0.193. For C37A A49C, the self-cleavage was 0.0162. As to G25U C50G, the self-cleavage is 0.25. Next, U60G A61C: 0.315; G68U G69U: 0.183.

For C38G G69C, the self-cleavage was found to be 0.241. Regarding A23G G56U, the self-cleavage was found to be 0.162. G1C U9A: the self-cleavage amounted to 0.117. Next, A64G A71G: 0.554; G19A G69C: 0.129; A41G A43G: 0.157. As for G25A C48U, the self-cleavage turned out to be 0.135. Next, G21U U52C: 0.764; G27A A36C: 0.253; U53C U70A: 1.09. As to G29U A36U, the self-cleavage turned out to be 0.104. The same measure for G29U C48A: 0.0831; for A39U G42U: 0.172. The same measure for C6U U53G: 0.801. As to C4U A30U, the self-cleavage is 0.13. Next, C16U C66G: 0.228; G56U U58G: 0.0453; A39C G54A: 0.121. Take C18G U53C: the self-cleavage came to 0.806. Turning to U14A G15C, the self-cleavage worked out at 1.06. In the case of C48A U53G, the self-cleavage stood at 0.191. Regarding A26C C50A, the self-cleavage was 0.117. The same measure for C6G U9A: 0.274; for A43U A45U: 0.164; for U2A A23U: 0.167. For the variant G19A A24U, the self-cleavage was 0.629. In the case of C4A A28U, the self-cleavage worked out at 0.174. In the case of A26C U53A, the self-cleavage came out at 0.521. The same measure for U2G U5A: 0.288; for U8A G19C: 0.553; for G15U A61U: 0.182. On to G34U G42C, for which the self-cleavage amounted to 1.17. In the case of C46G A61C, the self-cleavage is 0.154. A43C G69A: the self-cleavage is 0.105. For the variant A24U U55G, the self-cleavage is 0.242. Take G27A G54A: the self-cleavage was determined as 0.221. Consider U2A U9G, for which the self-cleavage is 0.179. Consider U52A C65G, for which the self-cleavage turned out to be 0.258. With C16A A31G, the self-cleavage worked out at 0.536. Regarding A35C A71U, the self-cleavage came to 0.668. For G19U A22U, the self-cleavage was 0.648. Next, A24G C38A: 0.125.

On to A11G G27C, for which the self-cleavage turned out to be 0.198. In the case of G25U A36U, the self-cleavage came out at 0.4. The same measure for C18G A22U: 0.801; for U7A A49C: 0.18; for C12A A22C: 0.575. Consider A36G A59G, for which the self-cleavage turned out to be 0.146. The same measure for A36G A59U: 0.0811; for C37U A44U: 0.173; for A24C U52G: 1.08. Take U2A G21U: the self-cleavage worked out at 0.271. For C16A C50A, the self-cleavage was found to be 0.361.

Consider G29A A45C, for which the self-cleavage was 0.0675.

On to U5C U67A, for which the self-cleavage was determined as 0.0797. In the case of C3A G57A, the self-cleavage worked out at 0.131. The same measure for U2A C37U: 0.23; for C16A A71C: 1.1; for G51C U67A: 0.123. With U8A G25A, the self-cleavage came out at 0.432. On to G1A U70A, for which the self-cleavage was 0.198.

In the case of C18U A28G, the self-cleavage was 1.26. Take A31C C48U: the self-cleavage came to 0.159. Turning to G27U A36C, the self-cleavage was 0.0992. Consider A49C A61C, for which the self-cleavage turned out to be 0.124. With U8A U70A, the self-cleavage is 0.665. On to G54C U70G, for which the self-cleavage came to 0.155. Next, G29C C46A: 0.111. Regarding U14A A22C, the self-cleavage amounted to 0.829. For the variant G40U G54U, the self-cleavage came to 0.096. Turning to C3U A49G, the self-cleavage came to 0.409. With G25A A71C, the self-cleavage is 1.1. For G27C A64G, the self-cleavage is 0.186. As for G29C U62C, the self-cleavage was determined as 0.113.

With C16A U63G, the self-cleavage came to 0.253. As for C16A U63A, the self-cleavage came to 0.132.

C3A U14C: the self-cleavage amounted to 0.677. With U2C C4A, the self-cleavage was found to be 0.1. Take U2C C4U: the self-cleavage was determined as 0.0249. With A39G G54U, the self-cleavage was 0.163. Next, A30U G42C: 0.114; U7G A30C: 0.0485; G15C C66A: 0.144. Regarding A24C A39U, the self-cleavage came out at 0.573.

For the variant A35U A47U, the self-cleavage amounted to 0.185. Regarding A28G U58C, the self-cleavage was 0.791. For the variant G17U G69A, the self-cleavage stood at 0.382. The same measure for G42A G57C: 0.0908; for A43U C50U: 0.116; for A43U C50G: 0.107. In the case of U2G A11C, the self-cleavage stood at 0.267. Turning to U33G A36C, the self-cleavage was 0.0918. As to G13C A61U, the self-cleavage was 0.161. For G15U G54U, the self-cleavage was determined as 0.632. Consider G32A G42C, for which the self-cleavage turned out to be 0.124. For G13A A43G, the self-cleavage is 0.0659. With G1A C65G, the self-cleavage amounted to 0.0867. Turning to C10U C46A, the self-cleavage came out at 0.15. Take C16G A61C: the self-cleavage worked out at 0.2. Regarding C10A G13C, the self-cleavage was found to be 0.411. In the case of G29A A61U, the self-cleavage worked out at 0.096.

As to U8G U62C, the self-cleavage was determined as 0.332. Next, G51U G68A: 0.312; U33A A43C: 0.219. In the case of A26U G54U, the self-cleavage amounted to 0.34. Turning to U58C U63G, the self-cleavage was determined as 0.27. Turning to A24U A59U, the self-cleavage was 0.185.

Turning to A45G A61G, the self-cleavage was found to be 0.169. As for A44U A61C, the self-cleavage is 0.0833. With A35U A45U, the self-cleavage was 0.151. Consider U14A U58G, for which the self-cleavage is 0.505. Regarding U8G A49U, the self-cleavage was determined as 0.164. For the variant U52A U63C, the self-cleavage worked out at 0.32. Next, A41G U52C: 0.827. The same measure for A23U G56U: 0.184. Regarding G1C A71C, the self-cleavage came to 0.328. Take G27A U60G: the self-cleavage was 0.213. Take U7C U52C: the self-cleavage was 0.528. With G40U G68A, the self-cleavage is 0.134. The same measure for A31C G56A: 0.148. Take A22G U62G: the self-cleavage is 0.122.
